The values that follow come from patent US20260193376A1.

Test [1] concerns the target human plasma-derived Factor IXa (human) (UniProt P00740). Nature of the test: cell-based or functional assay.
The target of test [2] is human coagulation Factor X (human) (UniProt P00742). The experiment in a line: ITC, 37 °C, pH 7.4, antibody injected into FX.
The target of test [3] is human coagulation Factor IX (human) (UniProt P00740). Nature of the test: ITC, 37 °C, pH 7.4, antibody injected into FIX. For orientation: In ITC the heat of successive injections is recorded.
The target of test [4] is human plasma-derived Factor IXa (human) (UniProt P00740). Nature of the test: ITC, 37 °C, pH 7.4, antibody injected into FIXa.
The target is the same in test [5]. The experiment in a line: FXa generation assay at eight OA antibody concentrations, fit to the quadratic binding equation.

human plasma-derived Factor IXa (human), sequence (P00740 47-191, chain 1 of 2): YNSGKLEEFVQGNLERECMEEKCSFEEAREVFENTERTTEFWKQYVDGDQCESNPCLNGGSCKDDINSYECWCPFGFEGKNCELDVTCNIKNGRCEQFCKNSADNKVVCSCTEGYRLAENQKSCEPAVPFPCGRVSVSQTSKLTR
human plasma-derived Factor IXa (human), sequence (P00740 227-461, chain 2 of 2): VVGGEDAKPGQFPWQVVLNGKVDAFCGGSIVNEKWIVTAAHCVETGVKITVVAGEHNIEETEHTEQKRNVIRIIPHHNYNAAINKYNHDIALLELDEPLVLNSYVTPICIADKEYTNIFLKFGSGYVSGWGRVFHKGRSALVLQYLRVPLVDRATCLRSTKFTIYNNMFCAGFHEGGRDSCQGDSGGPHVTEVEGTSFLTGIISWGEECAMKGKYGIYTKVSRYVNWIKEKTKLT
human coagulation Factor IX (human), sequence (P00740 47-461 T194A limits assumed): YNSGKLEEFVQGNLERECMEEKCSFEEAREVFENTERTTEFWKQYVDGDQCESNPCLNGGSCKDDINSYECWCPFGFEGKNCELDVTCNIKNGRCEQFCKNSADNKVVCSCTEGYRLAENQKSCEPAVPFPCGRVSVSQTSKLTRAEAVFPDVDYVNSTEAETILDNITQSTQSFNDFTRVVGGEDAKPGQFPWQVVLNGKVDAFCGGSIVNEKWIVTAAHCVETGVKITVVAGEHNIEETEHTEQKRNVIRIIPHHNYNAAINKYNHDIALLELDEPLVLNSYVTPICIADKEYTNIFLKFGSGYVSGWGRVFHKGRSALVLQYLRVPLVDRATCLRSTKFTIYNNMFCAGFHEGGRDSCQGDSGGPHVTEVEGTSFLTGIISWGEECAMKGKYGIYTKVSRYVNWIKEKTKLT
human coagulation Factor X (human), sequence (P00742 41-179, chain 1 of 2): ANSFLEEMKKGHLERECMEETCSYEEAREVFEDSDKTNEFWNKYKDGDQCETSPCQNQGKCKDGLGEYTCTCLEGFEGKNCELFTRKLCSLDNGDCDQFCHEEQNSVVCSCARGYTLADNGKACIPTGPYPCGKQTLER
human coagulation Factor X (human), sequence (P00742 183-488, chain 2 of 2): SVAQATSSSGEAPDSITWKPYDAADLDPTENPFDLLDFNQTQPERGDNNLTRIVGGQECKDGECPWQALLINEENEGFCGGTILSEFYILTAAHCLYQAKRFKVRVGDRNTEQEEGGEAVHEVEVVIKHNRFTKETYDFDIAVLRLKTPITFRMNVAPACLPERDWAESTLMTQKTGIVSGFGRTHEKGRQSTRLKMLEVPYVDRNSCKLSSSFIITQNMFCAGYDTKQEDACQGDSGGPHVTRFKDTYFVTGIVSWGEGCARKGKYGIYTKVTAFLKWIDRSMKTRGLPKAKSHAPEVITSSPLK

Consider ACE910 (bispecific antibody), for which the Maximum stimulation (fold), FXa generation assay with bispecific antibody; maximum at 10480 nM in test [1] was 891 fold. Besides, the figures for the dissociation constant Kd in test [2], in test [3] and in test [4] were 2420 nM, 2770 nM and 1970 nM, respectively.

With “one-armed (OA) ACE910 anti-FIXa antibody”, the Stimulation Index, FXa generation assay, estimated at full FIXa saturation in test [1] was 1370 fold. Besides, the dissociation constant Kd in test [5] came to 1100 nM.

The Kd is the free concentration of one partner at which half of the binding sites on the other are occupied at equilibrium, for simple one-to-one binding.
